Assay results taken from patent US20110046207.
pKd: −log10 of the molar value.

Target: T1, biotinylated human D-C5a (mirror-image C5a) (Homo sapiens) (UniProt P01031)
T1 sequence: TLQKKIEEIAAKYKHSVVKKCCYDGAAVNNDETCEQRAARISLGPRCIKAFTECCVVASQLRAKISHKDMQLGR
Experiment: pulldown

Work on “GCUGAACACGCCGCGUAGGACCCAAUGGGUAGAAUGGGCAGC [179-A3-015]” yielded a pKd (reference for type C ranking) of under 8.14.
Sequence “AGCGUGCUUGUCCGAUUGGCGGCACCCUUGCGGGACUGGGGAGUACGCU [172-D7-000]” has a pKd (37 C, 1 mM MgCl2, 1 mM CaCl2) of 7.52.
“GUACUGCGUUCGGACGUGGCAUGUUCCUUGACAAACGGUUGGCAGUAC [182-E5]” gave a pKd (37 C, 1 mM MgCl2, 1 mM CaCl2) of 8.62.
Sequence “GCUGGGCGUGUUUACUUGCUUAAUAGGGGGCCCAGC [185-H3-001]” has a pKd (37 C, 1 mM MgCl2, 1 mM CaCl2) of 8.30.
Sequence “GUGCUGCGUUCGGACGUGGCAUGUUCCUUGACAAACGGUUGGCAGCAC [182-C5]” has a pKd (37 C, 1 mM MgCl2, 1 mM CaCl2) of 8.66.
In the case of “GUGCUGGGUUCGGACGUGGCAUGUUCCUUGAUAAACGGUUGCCAGCAC [182-A8]”, the pKd (37 C, 1 mM MgCl2, 1 mM CaCl2) was 8.49.
“AGCGUGCUCGUCCGAUUGGCGGCACCCUUGCGGGACUGGGGAGUACGCU [172-D7-003]” gave a pKd (U to C at 3' end of 5'-terminal stretch) of 6.43.
For “GUGCUUGUCCGAUUGGCGGCACCCUUGCGGGACUGGGGAGUAC [172-D7-002]”, the pKd (six base pair terminal helix) was 6.97.
“GUGCUGAACACGCCGCGUAGGACUUCAAUGGAGUAGAAUGGGCAGCAC [179-A3]” was tested, and the pKd (37 C, 1 mM MgCl2, 1 mM CaCl2) was 8.14.
